± gives the standard deviation of the averaged measurements.
Experiments:
MCF7 = assay: percentage of EdU-negative (G0-arrested) nuclei per well, 72 h; higher = more G0 arrest; conditions: reference: sequence is the full UniProt precursor, the tested protein was the secreted form or ectodomain
hTERT-HMEC = assay: as above; conditions: reference: sequence is the full UniProt precursor, the tested protein was the secreted form or ectodomain
[1] = protein concentration 0.0225 µM
[2] = protein concentration 0.0357143 µM
[3] = protein concentration 0.357143 µM
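Further: secreted proteins added to cultured cells, EdU pulse at the end, nuclei found by Hoechst imaging, EdU status from nuclear versus surrounding ring intensity ratio, PBS as neutral control.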

| Sequence | percentage of EdU-negative (MCF7; [1]) [%] | percentage of EdU-negative (MCF7; protein concentration 0.225 µM) [%] | percentage of EdU-negative (hTERT-HMEC; [1]) [%] | percentage of EdU-negative (hTERT-HMEC; protein concentration 0.225 µM) [%] | percentage of EdU-negative (MCF7; [2]) [%] | percentage of EdU-negative (MCF7; [3]) [%] | percentage of EdU-negative (hTERT-HMEC; [2]) [%] | percentage of EdU-negative (hTERT-HMEC; [3]) [%] |
| --- | --- | --- | --- | --- | --- | --- | --- | --- |
| MCSTMSAPTCLAHLPPCFLLLALVLVPSDASGQSSRNDWQVLQPEGPMLVAEGETLLLRCMVVGSCTDGMIKWVKVSTQDQQEIYNFKRGSFPGVMPMIQRTSEPLNCDYSIYIHNVTREHTGTYHCVRFDGLSEHSEMKSDEGTSVLVKGAGDPEPDLWIIQPQELVLGTTGDTVFLNCTVLGDGPPGPIRWFQGAGLSREAIYNFGGISHPKETAVQASNNDFSILLQNVSSEDAGTYYCVKFQRKPNRQYLSGQGTSLKVKAKSTSSKEAEFTSEPATEMSPTGLLVVFAPVVLGLKAITLAALLLALATSRRSPGQEDVKTTGPAGAMNTLAWSKGQE [Q5JXA9] | 28 ± 1.8 | 26.5 ± 3.1 | 5.12 ± 0.92 | 5.14 ± 0.34 | – | – | – | – |
| MCTKTIPVLWGCFLLWNLYVSSSQTIYPGIKARITQRALDYGVQAGMKMIEQMLKEKKLPDLSGSESLEFLKVDYVNYNFSNIKISAFSFPNTSLAFVPGVGIKALTNHGTANISTDWGFESPLFQDTGGADLFLSGVYFTGIIILTRNDFGHPTLKLQDCYAQLSHAHVSFSGELSVLYNSFAEPMEKPILKNLNEMLCPIIASEVKALNANLSTLEVLTKIDNYTLLDYSLISSPEITENYLDLNLKGVFYPLENLTDPPFSPVPFVLPERSNSMLYIGIAEYFFKSASFAHFTAGVFNVTLSTEEISNHFVQNSQGLGNVLSRIAEIYILSQPFMVRIMATEPPIINLQPGNFTLDIPASIMMLTQPKNSTVETIVSMDFVASTSVGLVILGQRLVCSLSLNRFRLALPESNRSNIEVLRFENILSSILHFGVLPLANAKLQQGFPLSNPHKFLFVNSDIEVLEGFLLISTDLKYETSSKQQPSFHVWEGLNLISRQWRGKSAP [Q8NFQ6] | – | – | – | – | 25.1 ± 3.5 | 31.5 ± 2.8 | 5.01 ± 0.62 | 21.7 ± 0.58 |
| MCVGARRLGRGPCAALLLLGLGLSTVTGLHCVGDTYPSNDRCCHECRPGNGMVSRCSRSQNTVCRPCGPGFYNDVVSSKPCKPCTWCNLRSGSERKQLCTATQDTVCRCRAGTQPLDSYKPGVDCAPCPPGHFSPGDNQACKPWTNCTLAGKHTLQPASNSSDAICEDRDPPATQPQETQGPPARPITVQPTEAWPRTSQGPSTRPVEVPGGRAVAAILGLGLVLGLLGPLAILLALYLLRRDQRLPPDAHKPPGGGSFRTPIQEEQADAHSTLAKI | 24.5 ± 3.6 | 26 ± 1.2 | 5.89 ± 1 | 6.68 ± 0.33 | – | – | – | – |
| MCVTYHNGTGYCKCPEGFLGEYCQHRDPCEKNRCQNGGTCVAQAMLGKATCRCASGFTGEDCQYSTSHPCFVSRPCLNGGTCHMLSRDTYECTCQVGFTGKECQWTDACLSHPCANGSTCTTVANQFSCKCLTGFTGQKCETDVNECDIPGHCQHGGTCLNLPGSYQCQCLQGFTGQYCDSLYVPCAPSPCVNGGTCRQTGDFTFECNCLPETVRRGTELWERDREVWNGKEHDEN [Q7Z3S9] | 26 ± 0.95 | 24.5 ± 0.49 | 5.34 ± 0.17 | 5.36 ± 0.21 | – | – | – | – |
| MDFGLALLLAGLLGLLLGQSLQVKPLQVEPPEPVVAVALGASRQLTCRLACADRGASVQWRGLDTSLGAVQSDTGRSVLTVRNASLSAAGTRVCVGSCGGRTFQHTVQLLVYAFPDQLTVSPAALVPGDPEVACTAHKVTPVDPNALSFSLLVGGQELEGAQALGPEVQEEEEEPQGDEDVLFRVTERWRLPPLGTPVPPALYCQATMRLPGLELSHRQAIPVLHSPTSPEPPDTTSPESPDTTSPESPDTTSQEPPDTTSPEPPDKTSPEPAPQQGSTHTPRSPGSTRTRRPEISQAGPTQGEVIPTGSSKPAGDQLPAALWTSSAVLGLLLLALPTYHLWKRCRHLAEDDTHPPASLRLLPQVSAWAGLRGTGQVGISPS | 27.1 ± 4.2 | 26.3 ± 1.4 | 5.3 ± 0.25 | 5.85 ± 0.98 | – | – | – | – |
| MDFPCLWLGLLLPLVAALDFNYHRQEGMEAFLKTVAQNYSSVTHLHSIGKSVKGRNLWVLVVGRFPKEHRIGIPEFKYVANMHGDETVGRELLLHLIDYLVTSDGKDPEITNLINSTRIHIMPSMNPDGFEAVKKPDCYYSIGRENYNQYDLNRNFPDAFEYNNVSRQPETVAVMKWLKTETFVLSANLHGGALVASYPFDNGVQATGALYSRSLTPDDDVFQYLAHTYASRNPNMKKGDECKNKMNFPNGVTNGYSWYPLQGGMQDYNYIWAQCFEITLELSCCKYPREEKLPSFWNNNKASLIEYIKQVHLGVKGQVFDQNGNPLPNVIVEVQDRKHICPYRTNKYGEYYLLLLPGSYIINVTVPGHDPHITKVIIPEKSQNFSALKKDILLPFQGQLDSIPVSNPSCPMIPLYRNLPDHSAATKPSLFLFLVSLLHIFFK | 25.2 ± 4.8 | 26.7 ± 1.4 | 4.44 ± 0.072 | 4.97 ± 0.2 | – | – | – | – |

Source: the supplement of paper PMC11316812
